Experimental data reported in patent US20130289246A1 (VANDERBILT UNIVERSITY, published 2013).

B1: mAb 6J24 (antibody, V domains shown)
VH: EVQLVESGGGLVQPGRSLRLSCVGSGFNFDGYAMQWVRQVPGKGLEWVSGISWHSDSTGYADSVRGRFTISRDNAKNSLYLQMDSLRPEDTAFYYCGKSIGHVGGSYRHPIDYWGQGTLVTVS
VL: DIQLTQSPSSLSASVGDRVTITCRASQGITDYLAWYQQKPGTIPKLLIYAASTLQSGVPSRFSGGGYGTDFTLTISSLQPEDVATYYCQKYNSAPLTFGGGTKVEIKR
B2: mAb 10E15 (antibody, V domains shown)
VH: EVQLLESGGGVVQPGRSLRLSCAASGFTFRTYGMHWVRQAPGKGLEWVAVISHDGNLKYYGGSVKGRFTISRDNSKNALYLQMNSLRVDDTALYYCARGIGITDAFDIRGQGTMVVVS
VL: QSVLTQPPSVSAAPGQKVTISCSGSSSNIGKNYVSWYQQLPGTAPKLLIYDNDKRPSGIPDRFSGSKSGTSATLGITGLQTGDEADYHCGAWDSSLNGGVFGGGTKVTVLG
B3: mAb 3E22 (antibody, V domains shown)
VH: EVQLVESGAEVKKPGASVKVSCKASGYTFSRYYIHWVRQAPGQELEWMGWINPDSGDTNYAQKFRGRVTMARDTSISTVYMELNSLRYDDTAVYFCARIIWSSSGMDVWGQGTTVTVS
VL: QSALTQPASVSGSPGQSITISCTGTSSDVGSYNLVSWYQQHPGKAPKLMIYEVSKRPSGVSNRFSGSKSGNTASLTISGLQAEDEADYYCHLYVGSSNWVFGGGTKLAVLG
B4: mAb 5J8 (antibody, V domains shown)
VH: EVQLVESGPGLVKPSDILSLTCAVSGYSISSNYYWGWIRQPPGKGLEWIGSIYHSGSTYYKPSLESRLGISVDTSKNQFSLKLSFVSAADTAVYYCARHVRSGYPDTAYYFDKWGQGTLVTVS
VL: SYVLTQPPSVSVAPGETARISCGGNNIGTKVLHWYQQTPGQAPVLVVYDDSDRPSGIPERFSGSNSGNTATLTISRVEVGDEADYYCQVWDISTDQAVFGGGTKLTVLG
B5: mAb 2K11 (antibody, V domains shown)
VH: EVQLVESGGGLVQPGGSLRLSCVASTFSLINYWMTWVRQAPGKGLEWVANIKQDGFEKYYVDSVKGRFTISRDNAKNSLYLQMNSLRVEDTAVYYCARQGSYADTYFYHYGMDVWGQGTTVTVS
VL: QSALTQPPSVSGAPGQRVTISCTGSSSNIGAGYDAYWYQQLPGTAPKLLIYGNSNRLSGVPDRFSASKSGTSASLAITGLQAEDEADYYCQSYDSSLSIFGGGTKLTVLR
B6: mAb 2O10 (antibody, V domains shown)
VH: EVQLVESGGGLVQPGGSLRLSCAASGFTFNSYWMTWVRQAPGKGLEWVANINQDGSEKFFVDSVKGRFTISRDNAKTSLYLQMNSLRVEDTAVYYCAREGAPYDTYYYYYAMDVWGQGTTVTVS
VL: QSVLTQPPSVSGAPGQRVTISCTGTSSNIGAGYGVHWYQQLPGAAPKLLVYGNSNRPSGVPDRFSGSKSGTSASLAITGLQAEDEADYYCQSYDISLSGSNVFGTGTKVTVLG
B7: mAb 4A10 (antibody, V domains shown)
VH: EVQLVESGGGLVQPGGSLRLSCAASGFSFSSYWMTWVRQAPGKGLEWVANIKQYGSEKYYVDSVKGRFTISRDNAKNSLYLQMNSLRDDDTAVYYCARMGSYLDTYYYHYGMDVWGQGTTVTVS
VL: QSVLTQPPSLSGAPGQRVTISCTGSSSNIGADYDVYWYQHLPGTAPKLLMYGDGYRPSGVPDRFSGSKSGTSASLAITGLQAEDEADYYCQSYDSSLSRRVVFGGGTKLTVLG
B8: mAb 18G6 (antibody, V domains shown)
VH: QVQLKESGPGLVKPSETLSLTCTVSGGSISSSNYNWGWIRQPPGKGLEWIGSVYYSGSTYFNPSLKSRVTISVDTSKNQFSLKLTSVTAADTAVYYCARLIAFYYDTNGYTWGQGTLVTVS
VL: NSIMTQSPFTLSASVGDKVTITCRASQSISPWLAWYQQKPGKAPKLLIYKASSLETGVPSRFSGSESGTEFTLTISGLQPDDFATYYCQQYSSFARTFGQGTKVEIKR
B9: mAb 8F8 (antibody, V domains shown)
VH: EVQLLESGGGVVQPGRSLRLSCAASGFMFSSYVMHWVRQPPGKGLEWVAVIWYDGSKTYFADSMRGRLTVSRDNSKNALYLQMNRLRAEDTAVYYCARQQDSGYSGPEVSYYSHYGMDVWGQGTTVIVS
VL: QSVLTQSPSASGTPGRAITISCSGSSSNIGSNPVNWYQQLPGAAPKLLIYADEHRPSGVPDRFSGPKSGTSASLAISGLQSEDEADYYCAAWDDSLSGPAVVFGGGTKLTVLG
B10: mAb 7A13 (antibody, V domains shown)
VH: QVQLQESAPGLVKPSGTLSLTCAVSGASLSSSDWWTWVRQPPGKGLEWIGEIHHGGSTNSNPSLQSRVTISIDKSKKQFSLKLTSVTVADTAVYYCARAPGADAGPYSENIHHWGQGTLVTVS
VL: QLVLTQSPSASASLGASVKLTCTLSSRHSDYAIGWHQQQPGKGPRYLMKLNPDGSHTKGDGIPDRFSGSSSGAERYLTISNLLSEDEADYYCQTWGTGIQVFGGGTRLTVIS
B11: mAb 25J3 (antibody, V domains shown)
VH: QVQLQESGPGLVRPSETLSLTCNVSGDSINDYYWSWIRQPPGKGLEWIGYIYYSGSTNYNPSLNSRVTISVEMSKNQFSLILNSVTAADTAVYYCARVDYDSGGSFDPWGQGTLVTVS
VL: QSVLTQPPSVSGAPGQRVTISCTGSSSNIGAGYDVHWYQQLPGTAPKLLIYGNSNRPSGVPDRFSGSKSGTSASLAITGLQAEDEADFYCQSYDSRLSGYVFGTGTKVTVLG
B12: mAb 11J19 (antibody, V domains shown)
VH: EVQLQESGPGLVKPSETLSLSCTVSGGSITRSSYYWGWIRQPPGKGLEWIGNIYYSGTTYYNPSLKSRVTISVDTSKNQFSLKLSSVTAADTAVYYCARLYGSGLDYWGQGTLVTVS
VL: DIQLTQSPSFLSASVGDRVTITCRASQGSSRYVAWYQQKPGKAPKLLILAASTLHTGVPSRFSGSGSGTEFTLTISSLQPEDFATYSCQQLNGFLLTFGGGTKVEIKR
B13: mAb 3N6 (recombinant) (antibody, V domains shown)
VH: QVQLQESGPGLVKPSETLSLTCSVSGGSINYYYWSWIRQPPGKGLECIGYISDTGRTYYNPSLRSRVTISVDTSKNQFSLNLTSMTAADTAVYYCARDPTGSRQKNAFDMWGQGTMVTVS
VL: AIQMTQSPSSLSASVGDRVTITCRASQNIRSYLNWYQQKPGKAPNLLIYGTTSLESGVPSRFSGSGSGTDFTLTISSLQPEDFATYYCQQSYHTPQTFGQGTKVEIKR

Assays:
[1] = target: T1, first-generation H1 LAH construct H1frThrST (Influenza A virus (H1)); assay: ELISA, supernate
[2] = target: T2, first-generation H3 LAH construct H3frThrST (Influenza A virus (H3)); assay: ELISA, supernate
[3] = target: T1, first-generation H1 LAH construct …; assay: ELISA, supernate; remark: listed apart in the source
[4] = target: T1, first-generation H1 LAH construct …; assay: ELISA, supernate; remark: listed apart in the source
[5] = target: T2, first-generation H3 LAH construct …; assay: ELISA, supernate; remark: listed apart in the source
[6] = target: T2, first-generation H3 LAH construct …; assay: ELISA, supernate; remark: listed apart in the source
[7] = target: T1, first-generation H1 LAH construct …; assay: ELISA, supernate; remark: listed apart in the source
[8] = target: T2, first-generation H3 LAH construct …; assay: ELISA, supernate; remark: listed apart in the source
[9] = target: T1, first-generation H1 LAH construct …; assay: ELISA, supernate; remark: listed apart in the source
[10] = target: T2, first-generation H3 LAH construct …; assay: ELISA, supernate; remark: listed apart in the source
[11] = target: T1, first-generation H1 LAH construct …; assay: ELISA, supernate; remark: listed apart in the source
[12] = target: T2, first-generation H3 LAH construct …; assay: ELISA, supernate; remark: listed apart in the source
[13] = target: T1, first-generation H1 LAH construct …; assay: ELISA, recombinant mAb
[14] = target: T2, first-generation H3 LAH construct …; assay: ELISA, recombinant mAb

Binder	OD [9] [OD]	OD [10] [OD]	OD [11] [OD]	OD [12] [OD]	also measured
B1					OD [1]: 0.418 OD; OD [2]: 0.94 OD
B2					binding result [3]: no binding; OD [4]: 0.068 OD; OD [5]: 0.07 OD
B3					binding result [3]: no binding; binding result [6]: no binding; OD [7]: 0.087 OD; OD [8]: 0.086 OD
B4	0.076	0.083			
B5	0.079	0.072			
B6	0.072	0.074			
B7	0.069	0.073			
B8			0.071	0.071	
B9			0.071	0.071	
B10			0.068	0.068	
B11			0.068	0.067	
B12			0.085	0.075	
B13					OD [13]: 0.91 OD; OD [14]: 0.072 OD
